Results taken from paper PMC12474313.

Molecular target: rRABV-G-XVIII (rabies virus glycoprotein ectodomain fused to the human collagen XVIII trimerization domain) (rabies virus strain CVS-11 | human)
Test: SEC

**Q.** What does the source list for “rRABV-G-XVIII (rabies virus glycoprotein ectodomain fused to the human collagen XVIII trimerization domain)”?
**A.** percent trimeric protein: 96.3%; stoichiometry N: 3
